Measured values taken from US20240117334A1 (VERTEX PHARMACEUTICALS, published 2024).
Where “and” joins values, the source holds several entries; their conditions need not be identical. Identical values can stand only once.

How the values were obtained:
Human Factor B [1] = biological target: T1, Human Factor B (human, UniProt P00751 26-764); test: cell-based or functional assay
[2] = biological target: T2, Plasma antichymotrypsin (ACT) (UniProt P01011 24-423); test: serpin inhibition of the protease
T2 construct: also called plasma ACT
T2 sequence (looked up): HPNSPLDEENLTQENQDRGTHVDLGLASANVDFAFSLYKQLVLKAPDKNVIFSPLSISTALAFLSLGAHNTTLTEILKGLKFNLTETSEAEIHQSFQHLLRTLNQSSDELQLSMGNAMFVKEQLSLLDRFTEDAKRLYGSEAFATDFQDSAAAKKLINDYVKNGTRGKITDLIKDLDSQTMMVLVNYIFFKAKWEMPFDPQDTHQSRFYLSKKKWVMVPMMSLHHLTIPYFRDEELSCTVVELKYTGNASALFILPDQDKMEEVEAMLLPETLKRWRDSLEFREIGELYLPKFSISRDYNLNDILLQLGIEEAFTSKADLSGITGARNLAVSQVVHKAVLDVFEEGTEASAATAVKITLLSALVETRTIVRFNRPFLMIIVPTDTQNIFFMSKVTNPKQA

Human Factor B [3] = biological target: T1, Human Factor B; test: cell-based or functional assay; remark: listed apart in the source

T1 sequence (P00751 26-764 limits assumed): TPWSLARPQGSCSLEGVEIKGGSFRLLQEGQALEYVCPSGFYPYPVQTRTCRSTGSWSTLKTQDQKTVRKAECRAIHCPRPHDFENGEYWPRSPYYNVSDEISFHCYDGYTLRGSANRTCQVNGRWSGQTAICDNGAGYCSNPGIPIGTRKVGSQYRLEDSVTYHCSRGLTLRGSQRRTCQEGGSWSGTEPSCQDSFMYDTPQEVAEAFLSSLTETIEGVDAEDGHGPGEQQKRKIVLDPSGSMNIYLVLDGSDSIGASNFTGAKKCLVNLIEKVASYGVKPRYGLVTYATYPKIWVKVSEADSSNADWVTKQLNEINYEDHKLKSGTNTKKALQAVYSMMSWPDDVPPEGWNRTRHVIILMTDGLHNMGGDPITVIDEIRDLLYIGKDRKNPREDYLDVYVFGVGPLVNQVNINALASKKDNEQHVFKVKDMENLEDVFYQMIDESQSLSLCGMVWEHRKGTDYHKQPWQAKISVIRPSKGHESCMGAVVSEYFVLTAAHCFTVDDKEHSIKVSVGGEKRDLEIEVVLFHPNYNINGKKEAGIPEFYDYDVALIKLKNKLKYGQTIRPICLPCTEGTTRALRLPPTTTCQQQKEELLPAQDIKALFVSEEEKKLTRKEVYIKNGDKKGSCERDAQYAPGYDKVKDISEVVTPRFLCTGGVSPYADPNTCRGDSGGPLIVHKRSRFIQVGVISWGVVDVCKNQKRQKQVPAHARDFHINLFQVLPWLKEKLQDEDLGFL

B1: MTSP-1 F97L/T98G/F99V/C122S/C[17]S/C[19]S/-null_D96insD (enzyme)
chain: VVGGTDADEGEWPWQVSLHALGQGHICGASLISPNWLVSAAHCYIDDRGFRYSDPTQWTAFLGLHDQSQRSAPGVQERRLKRIISHPFFNDDLGVDYDIALLELEKPAEYSSMVRPISLPDASHVFPAGKAIWVTGWGHTQYGGTGALILQKGEIRVINQTTCENLLPQQITPRMMCVGFLSGGVDSCQGDSGGPLSSVEADGRIFQAGVVSWGDGCAQRNKPGVYTRLPLFRDWIKENTGV
Hu fB Add-Back EC50 (Human Factor B [1]): 4590 nM and 3490 nM

B2: chymase C22S/K40L/F41H/L99N/F173Y/D175N/S218L/A226R (enzyme)
chain: IIGGTESKPHSRPYMAYLEIVTSNGPSLHCGGFLIRRNFVLTAAHCAGRSITVTLGAHNITEEEDTWQKLEVIKQFRHPKYNTSTNHHDIMLLKLKEKASLTLAVGTLPFPSQFNFVPPGRMCRVAGWGRTGVLKPGSDTLQEVKLRLMDPQACSHYRNFDHNLQLCVGNPRKTKSAFKGDSGGPLLCAGVAQGIVSYGRLDAKPPRVFTRISHYRPWINQILQAN
notes: also called MS No. 16
kapp [2]: 40 M⁻¹ s⁻¹
fB Cleavage EC50 (Human Factor B [3]): 139 nM
fB Cleavage, 80% plasma EC50 (Human Factor B [3]): 5070 nM

B3: chymase C22S/K40L/F41K/L99H/G151S/F173Y/S218L/A226R (enzyme)
chain: IIGGTESKPHSRPYMAYLEIVTSNGPSLKCGGFLIRRNFVLTAAHCAGRSITVTLGAHNITEEEDTWQKLEVIKQFRHPKYNTSTHHHDIMLLKLKEKASLTLAVGTLPFPSQFNFVPPGRMCRVAGWGRTGVLKPSSDTLQEVKLRLMDPQACSHYRDFDHNLQLCVGNPRKTKSAFKGDSGGPLLCAGVAQGIVSYGRLDAKPPRVFTRISHYRPWINQILQAN
kapp [2]: 139 M⁻¹ s⁻¹
fB Cleavage, 80% plasma EC50 (Human Factor B [3]): 17200 nM

B4: chymase C22S/K40L/F41K/L99N/F173Y/D175N/S218L/A226R (enzyme)
chain: IIGGTESKPHSRPYMAYLEIVTSNGPSLKCGGFLIRRNFVLTAAHCAGRSITVTLGAHNITEEEDTWQKLEVIKQFRHPKYNTSTNHHDIMLLKLKEKASLTLAVGTLPFPSQFNFVPPGRMCRVAGWGRTGVLKPGSDTLQEVKLRLMDPQACSHYRNFDHNLQLCVGNPRKTKSAFKGDSGGPLLCAGVAQGIVSYGRLDAKPPRVFTRISHYRPWINQILQAN
notes: also called MS No. 8
kapp [2]: 28 M⁻¹ s⁻¹
fB Cleavage, 80% plasma EC50 (Human Factor B [3]): 5700 nM

B5: chymase C22S/K40L/F41H/L99N/F173Y/S218L/A226R (enzyme)
chain: IIGGTESKPHSRPYMAYLEIVTSNGPSLHCGGFLIRRNFVLTAAHCAGRSITVTLGAHNITEEEDTWQKLEVIKQFRHPKYNTSTNHHDIMLLKLKEKASLTLAVGTLPFPSQFNFVPPGRMCRVAGWGRTGVLKPGSDTLQEVKLRLMDPQACSHYRDFDHNLQLCVGNPRKTKSAFKGDSGGPLLCAGVAQGIVSYGRLDAKPPRVFTRISHYRPWINQILQAN
kapp [2]: 193 M⁻¹ s⁻¹
fB Cleavage, 80% plasma EC50 (Human Factor B [3]): 13900 nM

B6: chymase C22S/K40M/F41R/L99N/G151S/F173Y/S218L/A226R (enzyme)
chain: IIGGTESKPHSRPYMAYLEIVTSNGPSMRCGGFLIRRNFVLTAAHCAGRSITVTLGAHNITEEEDTWQKLEVIKQFRHPKYNTSTNHHDIMLLKLKEKASLTLAVGTLPFPSQFNFVPPGRMCRVAGWGRTGVLKPSSDTLQEVKLRLMDPQACSHYRDFDHNLQLCVGNPRKTKSAFKGDSGGPLLCAGVAQGIVSYGRLDAKPPRVFTRISHYRPWINQILQAN
kapp [2]: 317 M⁻¹ s⁻¹
fB Cleavage, 80% plasma EC50 (Human Factor B [3]): 11200 nM

B7: chymase C22S/K40L/F41L/L99N/G151H/F173Y/S218V/A226R (enzyme)
chain: IIGGTESKPHSRPYMAYLEIVTSNGPSLLCGGFLIRRNFVLTAAHCAGRSITVTLGAHNITEEEDTWQKLEVIKQFRHPKYNTSTNHHDIMLLKLKEKASLTLAVGTLPFPSQFNFVPPGRMCRVAGWGRTGVLKPHSDTLQEVKLRLMDPQACSHYRDFDHNLQLCVGNPRKTKSAFKGDSGGPLLCAGVAQGIVSYGRVDAKPPRVFTRISHYRPWINQILQAN
kapp [2]: 252 M⁻¹ s⁻¹
fB Cleavage, 80% plasma EC50 (Human Factor B [3]): 17100 nM

B8: chymase C22S/K40L/F41R/L99N/F173Y/S218L/A226R (enzyme)
chain: IIGGTESKPHSRPYMAYLEIVTSNGPSLRCGGFLIRRNFVLTAAHCAGRSITVTLGAHNITEEEDTWQKLEVIKQFRHPKYNTSTNHHDIMLLKLKEKASLTLAVGTLPFPSQFNFVPPGRMCRVAGWGRTGVLKPGSDTLQEVKLRLMDPQACSHYRDFDHNLQLCVGNPRKTKSAFKGDSGGPLLCAGVAQGIVSYGRLDAKPPRVFTRISHYRPWINQILQAN
kapp [2]: 190 M⁻¹ s⁻¹
fB Cleavage EC50 (Human Factor B [3]): 379 nM
fB Cleavage, 80% plasma EC50 (Human Factor B [3]): 15600 nM

B9: chymase C22S/K40L/F41K/L99H/F173Y/S218L/A226R (enzyme)
chain: IIGGTESKPHSRPYMAYLEIVTSNGPSLKCGGFLIRRNFVLTAAHCAGRSITVTLGAHNITEEEDTWQKLEVIKQFRHPKYNTSTHHHDIMLLKLKEKASLTLAVGTLPFPSQFNFVPPGRMCRVAGWGRTGVLKPGSDTLQEVKLRLMDPQACSHYRDFDHNLQLCVGNPRKTKSAFKGDSGGPLLCAGVAQGIVSYGRLDAKPPRVFTRISHYRPWINQILQAN
kapp [2]: 147 M⁻¹ s⁻¹
fB Cleavage, 80% plasma EC50 (Human Factor B [3]): 14800 nM

B10: chymase C22S/K40L/F41R/L99N/F173Y/D175N/S218L/A226R (enzyme)
chain: IIGGTESKPHSRPYMAYLEIVTSNGPSLRCGGFLIRRNFVLTAAHCAGRSITVTLGAHNITEEEDTWQKLEVIKQFRHPKYNTSTNHHDIMLLKLKEKASLTLAVGTLPFPSQFNFVPPGRMCRVAGWGRTGVLKPGSDTLQEVKLRLMDPQACSHYRNFDHNLQLCVGNPRKTKSAFKGDSGGPLLCAGVAQGIVSYGRLDAKPPRVFTRISHYRPWINQILQAN
notes: also called MS No. 15
kapp [2]: 37 M⁻¹ s⁻¹
fB Cleavage EC50 (Human Factor B [3]): 119 nM
fB Cleavage, 80% plasma EC50 (Human Factor B [3]): 4090 nM and 3760 nM

B11: chymase C22S/S189T/A190S/A226R (enzyme)
chain: IIGGTESKPHSRPYMAYLEIVTSNGPSKFCGGFLIRRNFVLTAAHCAGRSITVTLGAHNITEEEDTWQKLEVIKQFRHPKYNTSTLHHDIMLLKLKEKASLTLAVGTLPFPSQFNFVPPGRMCRVAGWGRTGVLKPGSDTLQEVKLRLMDPQACSHFRDFDHNLQLCVGNPRKTKTSFKGDSGGPLLCAGVAQGIVSYGRSDAKPPRVFTRISHYRPWINQILQAN
kapp [2]: 935 M⁻¹ s⁻¹
fB Cleavage EC50 (Human Factor B [3]): 605 nM

B12: MTSP-1 A77aT/F94Y/C122S/D125G (enzyme)
chain: VVGGTDADEGEWPWQVSLHALGQGHICGASLISPNWLVSAAHCYIDDRGFRYSDPTQWTAFLGLHDQSQRSTPGVQERRLKRIISHPFYNDFTFDYDIALLELEKPAEYSSMVRPISLPGASHVFPAGKAIWVTGWGHTQYGGTGALILQKGEIRVINQTTCENLLPQQITPRMMCVGFLSGGVDSCQGDSGGPLSSVEADGRIFQAGVVSWGDGCAQRNKPGVYTRLPLFRDWIKENTGV
Hu fB Add-Back EC50 (Human Factor B [1]): 65.9 nM and 125 nM

B13: MTSP-1 I41G/F97E/F99L/C122S/C[17]S/C[19]S (enzyme)
chain: VVGGTDADEGEWPWQVSLHALGQGHGCGASLISPNWLVSAAHCYIDDRGFRYSDPTQWTAFLGLHDQSQRSAPGVQERRLKRIISHPFFNDETLDYDIALLELEKPAEYSSMVRPISLPDASHVFPAGKAIWVTGWGHTQYGGTGALILQKGEIRVINQTTCENLLPQQITPRMMCVGFLSGGVDSCQGDSGGPLSSVEADGRIFQAGVVSWGDGCAQRNKPGVYTRLPLFRDWIKENTGV
Hu fB Add-Back EC50 (Human Factor B [1]): 362 nM and 358 nM and 292 nM

B14: MTSP-1 I41G/F97D/F99L/C122S/Y146D/C[17]S/C[19]S (enzyme)
chain: VVGGTDADEGEWPWQVSLHALGQGHGCGASLISPNWLVSAAHCYIDDRGFRYSDPTQWTAFLGLHDQSQRSAPGVQERRLKRIISHPFFNDDTLDYDIALLELEKPAEYSSMVRPISLPDASHVFPAGKAIWVTGWGHTQDGGTGALILQKGEIRVINQTTCENLLPQQITPRMMCVGFLSGGVDSCQGDSGGPLSSVEADGRIFQAGVVSWGDGCAQRNKPGVYTRLPLFRDWIKENTGV
Hu fB Add-Back EC50 (Human Factor B [1]): 283 nM and 395 nM

B15: MTSP-1 I41A/F97D/F99L/C122S (enzyme)
chain: VVGGTDADEGEWPWQVSLHALGQGHACGASLISPNWLVSAAHCYIDDRGFRYSDPTQWTAFLGLHDQSQRSAPGVQERRLKRIISHPFFNDDTLDYDIALLELEKPAEYSSMVRPISLPDASHVFPAGKAIWVTGWGHTQYGGTGALILQKGEIRVINQTTCENLLPQQITPRMMCVGFLSGGVDSCQGDSGGPLSSVEADGRIFQAGVVSWGDGCAQRNKPGVYTRLPLFRDWIKENTGV
Hu fB Add-Back EC50 (Human Factor B [1]): 283 nM

B16: MTSP-1 I41N/F97D/F99L/C122S/C[17]S/C[19]S (enzyme)
chain: VVGGTDADEGEWPWQVSLHALGQGHNCGASLISPNWLVSAAHCYIDDRGFRYSDPTQWTAFLGLHDQSQRSAPGVQERRLKRIISHPFFNDDTLDYDIALLELEKPAEYSSMVRPISLPDASHVFPAGKAIWVTGWGHTQYGGTGALILQKGEIRVINQTTCENLLPQQITPRMMCVGFLSGGVDSCQGDSGGPLSSVEADGRIFQAGVVSWGDGCAQRNKPGVYTRLPLFRDWIKENTGV
Hu fB Add-Back EC50 (Human Factor B [1]): 223 nM
